Test results taken from PMC3279363.
“And” between values parts separate entries of the source, which are not always exact repeats. Equal entries are not always repeated.

Biological target: T1, nitrated major birch pollen allergen Bet v 1.0101 (Betula verrucosa), P15494
T1 chain: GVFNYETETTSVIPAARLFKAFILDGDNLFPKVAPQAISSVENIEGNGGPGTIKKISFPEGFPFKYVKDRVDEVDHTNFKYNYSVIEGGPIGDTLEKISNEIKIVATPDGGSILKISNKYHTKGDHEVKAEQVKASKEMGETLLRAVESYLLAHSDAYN
Test: SEC + other: Western blot; data not shown; high performance size exclusion chromatography and Western blot analysis of Bet v 1 nitro
Conditions: remark: other sources report otherwise

stoichiometry N: 2 and 3
B1: nitrated major birch pollen allergen Bet v 1.0101, P15494 2-160 (natural protein)
chain: GVFNYETETTSVIPAARLFKAFILDGDNLFPKVAPQAISSVENIEGNGGPGTIKKISFPEGFPFKYVKDRVDEVDHTNFKYNYSVIEGGPIGDTLEKISNEIKIVATPDGGSILKISNKYHTKGDHEVKAEQVKASKEMGETLLRAVESYLLAHSDAYN
modifications: here or on the partner: nitrotyrosine: 58.1% of all tyrosine groups within one protein molecule were nitrated (tetranitromethane); all tyrosine residues nitrated to some extent; nitrotyrosine: 58.1% of all tyrosine groups within one protein molecule were nitrated (tetranitromethane); all tyrosine residues nitrated to some extent
